According to patent US20210104294A1 (published 2021):

T1: HLA-A*01:01 (human, UniProt P04439-2 25-302)
T1 chain: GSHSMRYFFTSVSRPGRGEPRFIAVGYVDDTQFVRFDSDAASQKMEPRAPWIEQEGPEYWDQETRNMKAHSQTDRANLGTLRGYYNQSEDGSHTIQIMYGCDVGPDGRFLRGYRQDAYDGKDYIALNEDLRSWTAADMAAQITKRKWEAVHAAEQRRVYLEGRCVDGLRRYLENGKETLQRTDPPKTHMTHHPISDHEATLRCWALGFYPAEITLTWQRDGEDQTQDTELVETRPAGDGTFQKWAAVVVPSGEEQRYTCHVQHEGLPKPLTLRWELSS

B1: TPESKIRFV (peptide)
chain: TPESKIRFV
B2: VPPLVPKVL (peptide)
chain: VPPLVPKVL
B3: DGRLVINRV (peptide)
chain: DGRLVINRV
B4: IIYPTPKVV (peptide)
chain: IIYPTPKVV
B5: DGYVVKETI (peptide)
chain: DGYVVKETI
B6: DAPLNIRSI (peptide)
chain: DAPLNIRSI
B7: YIIEREPLI (peptide)
chain: YIIEREPLI
B8: VALLVGEKV (peptide)
chain: VALLVGEKV
B9: DGLRDLPSI (peptide)
chain: DGLRDLPSI
B10: DAYPQRIKF (peptide)
chain: DAYPQRIKF
B11: DGLLRVLTV (peptide)
chain: DGLLRVLTV
B12: FYPELKLAY (peptide)
chain: FYPELKLAY
B13: GLDDKLLHY (peptide)
chain: GLDDKLLHY
B14: GLPDLVAKY (peptide)
chain: GLPDLVAKY
B15: LPLDIQIFY (peptide)
chain: LPLDIQIFY
B16: ALSDLALHF (peptide)
chain: ALSDLALHF
B17: HFLDRHLVF (peptide)
chain: HFLDRHLVF
B18: YLPALKVEY (peptide)
chain: YLPALKVEY
B19: YVPEHWEYY (peptide)
chain: YVPEHWEYY
B20: DTEFPNFKY (peptide)
chain: DTEFPNFKY
B21: KLDLLEQEY (peptide)
chain: KLDLLEQEY
B22: TTDGYLLRL (peptide)
chain: TTDGYLLRL
B23: FLWPEAFLY (peptide)
chain: FLWPEAFLY
B24: ATDGKVLLW (peptide)
chain: ATDGKVLLW
B25: FVEILIPVA (peptide)
chain: FVEILIPVA
B26: FPKETFEGP (peptide)
chain: FPKETFEGP
B27: YGFVNYVTA (peptide)
chain: YGFVNYVTA
B28: SAPVNFISA (peptide)
chain: SAPVNFISA
B29: YPVYQPVGP (peptide)
chain: YPVYQPVGP

What follows are binders tested against HLA-B*51:01 (human) (assay: in vitro peptide-MHC affinity measurement).
B1 gave an IC50 of 84.8 nM. B2 gave an IC50 of 56.3 nM. Work on B3 yielded an IC50 of 13.5 nM. Binder B4 has an IC50 of 38 nM. B5 showed an IC50 of 13.4 nM. Work on B6 yielded an IC50 of 6.5 nM. B7 gave an IC50 of 1790 nM. With B8 the IC50 was 144 nM. B9 gave an IC50 of 12.6 nM. B10 showed an IC50 of 31 nM. For B11, the IC50 was 0.2 nM.

Each binder was assayed against HLA-A*29:02 (human, UniProt P04439 25-308) (assay: in vitro peptide-MHC affinity measurement).
B12 showed an IC50 of 0.2 nM. B13 showed an IC50 of 21.3 nM. For B14, the IC50 was 29.7 nM. B15 was tested, and the IC50 was 4.6 nM. With B16 the IC50 was 6 nM. Binder B17 has an IC50 of 1.6 nM. With B18 the IC50 was 2.6 nM.

Target: T1, HLA-A*01:01
Test: in vitro peptide-MHC affinity measurement
Work on B19 yielded an IC50 of 11.1 nM. Work on B20 yielded an IC50 of 80.8 nM. In the case of B21, the IC50 is reported as 70.6 nM. In the case of B22, the IC50 is reported as 78.9 nM. Work on B23 yielded an IC50 of 1.3 nM. In the case of B24, the IC50 is reported as 191 nM.

Each binder was assayed against HLA-B*54:01 (human, UniProt P01889 25-309) (assay: in vitro peptide-MHC affinity measurement).
For B25, the IC50 was 12.2 nM. Binder B26 has an IC50 of 16.4 nM. B27 showed an IC50 of 6 nM. With B28 the IC50 was 16.6 nM. B29 showed an IC50 of 1.7 nM.
